Assay type in all cases: biochemical
Experiment [1] concerns the target T1, FXa (Homo sapiens, UniProt P00742).
T1 construct: purchased Enzyme Research Laboratories
The experiment can be described thus: Unaccelerated ZPI–FXa reactions: kinetics and stoichiometry of inhibition. The following applies: for ka,app: absence of PZ, 2.5 mM CaCl2, pH 7.4, 25 °C. The method, then: (§1) Apparent second-order rate constants for unaccelerated and H50-accelerated ZPI–FXa reactions were measured in the absence and presence of the optimal H50 concentration under pseudo–first-order conditions by analyzing full ZPI–FXa reaction progress curves over the ZPI concentration range of 10 to 900 nM with ∼0.5 nM FXa. Full reaction progress curves were also measured for ZPI–FXa reactions in the presence of PZ equimolar with ZPI, 25 μM lipid, and 5 mM CaCl2, as a function of the ZPI concentration in the range of 10 to 40 nM. Identical reaction mixtures were quenched at varying reaction times with substrate, and the time course of protease inactivation was measured from the decrease in initial rates of substrate hydrolysis. The first-order rate of decrease in protease activity with time was computer fit by a single exponential decay function with a nonzero end point and kobs obtained from the fitted exponential decay constant. Apparent second-order association rate constants (ka,app) were obtained from the slopes of linear plots of kobs versus the ZPI concentration according to the equation, kobs=kd+ka,app × [ZPI]0
(§2) In which kd represents the rate constant for ZPI–FXa complex dissociation and [ZPI]o is the total ZPI concentration. kd was fixed at the experimentally determined value of 10^−4 s^−1 for WT and ZPI mutants as described ([18]).
(§3) Fixed concentrations of FXa (50–100 nM FXa) were reacted with increasing concentrations of ZPI, ranging from a approximately threefold to sevenfold molar excess, in the absence of cofactors or in the presence of either 1 μM H50 or PZ equimolar with ZPI, 25 μM lipid, and 5 mM CaCl2, in kinetics buffer at 25 °C in reaction volumes of 50 μl. After allowing sufficient time to reach a reaction end point, based on measured second-order associate rate constants (∼5–30 min), remaining proteolytic activity was measured by reacting an aliquot (5–20 μl) of the reaction mixtures with 1 ml of 100 μM Spectrozyme fXa (American Diagnostica) containing 50 μg/ml Polybrene and 5 mM EDTA and monitoring the rate of absorbance change at 405 nm. The apparent SI was determined from the fitted abscissa intercept of a linear plot of residual protease activity against the molar ratio of inhibitor to protease ([18]). Because the ZPI–PZ complex dissociates to a small extent over the reaction time, apparent SIs depend on the time of incubation. To correct for such complex dissociation, apparent SIs were multiplied by the factor, exp (−kd × t), where kd is the measured complex dissociation rate constant of 10^−4 s^−1 and t the fixed reaction time. Simulations verified the validity of this correction for small extents of dissociation. Reported SIs are average values of at least two independent measurements at different reaction times.

The target of experiment [2] is T1, FXa. The experiment can be described thus: PZ-accelerated ZPI–FXa reactions: kinetics and stoichiometry of inhibition. To be noted: for PZ enhancement: ratio of PZ-accelerated to unaccelerated ka,app × SI; for SI / ka,app × SI / ka,app × SI relative to WT: PZ-accelerated; for ka,app: equimolar PZ, 25 μM phospholipid, 5 mM CaCl2, pH 7.4, 25 °C. As to the method: as §1, §2, §3

Experiment [3] has as its target T1, FXa. Nature of the experiment: H50 heparin-accelerated ZPI–FXa reactions: kinetics and stoichiometry of inhibition. The following applies: for SI / ka,app × SI / ka,app × SI relative to WT: 1 μM H50; for ka,app: 1 μM H50, 2.5 mM CaCl2, pH 7.4, 25 °C; for H50 rate enhancement: ratio of heparin-accelerated to unaccelerated ka,app × SI. The method, then:
Heparin accelerating effects on the kinetics of ZPI–FXa reactions were evaluated as a function of heparin concentration under pseudo–first-order conditions (i.e., with a large molar excess of inhibitor over protease) by incubating reaction mixtures of 100 μl containing 70 nM ZPI and ∼0.5 nM FXa in the absence or presence of varying levels of H50 ranging from 10^−9 to 10^−4 M in 20 mM Tris buffer (pH 7.4), 0.1 M NaCl, 0.1% PEG 8000, 0.1 mg/ml BSA, and 2.5 mM CaCl2 at 25 °C for reaction times of 2 to 5 min. Reactions were quenched by adding 1 ml of 50 μM Pefafluor FXa substrate (Centerchem, Inc) containing 50 μg/ml polybrene and 5 mM EDTA. The initial linear rate of substrate hydrolysis was monitored at an excitation wavelength of 380 nm and an emission wavelength of 440 nm. The observed pseudo–first-order rate constant for reactions (kobs) was calculated from the equation, kobs=In([vo-v∞]/[vt-v∞])/t
where vt and v∞ are the initial velocities of protease hydrolysis of the substrate after reaction with ZPI for the fixed reaction time and after reaching the reaction end point, respectively, vo is the velocity measured in control reactions without ZPI, and t is the fixed reaction time. The dependence of kobs on heparin concentration was computer fit by nonlinear least squares analysis by the ternary complex bridging model equation ([10]).
as §1, §2
as §3, with “Simulations verified the validity of this correction for small extents of dissociation. Reported SIs are average values of at least two independent measurements at different reaction times.” left out

T1 sequence (P00742 235-488 limits assumed): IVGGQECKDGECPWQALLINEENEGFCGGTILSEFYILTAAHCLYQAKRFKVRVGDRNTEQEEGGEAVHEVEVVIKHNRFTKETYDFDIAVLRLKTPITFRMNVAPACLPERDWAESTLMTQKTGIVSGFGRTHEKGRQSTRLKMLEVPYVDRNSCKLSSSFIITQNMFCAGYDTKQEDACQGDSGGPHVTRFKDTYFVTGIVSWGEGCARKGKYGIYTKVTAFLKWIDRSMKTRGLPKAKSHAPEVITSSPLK
T1 sequence (P00742 41-179 limits assumed): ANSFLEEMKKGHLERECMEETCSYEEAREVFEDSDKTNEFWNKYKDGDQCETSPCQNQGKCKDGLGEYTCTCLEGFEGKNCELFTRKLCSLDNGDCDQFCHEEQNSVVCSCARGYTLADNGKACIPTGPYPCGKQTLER

B1: D293A: ZPI mutant in the PZ-binding site hot spot residue (protein, UniProt Q9UK55 22-444, looked up, variant D293A)
Protein Z-dependent protease …: LAPSPQSPETPAPQNQTSRVVQAPKEEEEDEQEASEEKASEEEKAWLMASRQQLAKETSNFGFSLLRKISMRHDGNMVFSPFGMSLAMTGLMLGATGPTETQIKRGLHLQALKPTKPGLLPSLFKGLRETLSRNLELGLTQGSFAFIHKDFDVKETFFNLSKRYFDTECVPMNFRNASQAKRLMNHYINKETRGKIPKLFDEINPETKLILVDYILFKGKWLTPFDPVFTEVDTFHLDKYKTIKVPMMYGAGKFASTFDKNFRCHVLKLPYQGNATMLVVLMEKMGDHLALEAYLTTDLVETWLRNMKTRNMEVFFPKFKLDQKYEMHELLRQMGIRRIFSPFADLSELSATGRNLQVSRVLQRTVIEVDERGTEAVAGILSEITAYSMPPVIKVDRPFHFMIYEETSGMLLFLGRVVNPTLL
In the case of B1, in experiment [1], the SI came to 2.6 ± 0.1 moles ZPI/mole FXa, the “ka,app × SI” value is on record as 1.1 ± 0.1 × 10^4 M^−1 s^−1, the “ka,app × SI relative to WT” value is reported as “(0.69)” and the “ka,app” value is 4.1 ± 0.2 × 10^3 M^−1 s^−1. Further, the PZ enhancement result in experiment [2] is recorded as “greatly abrogated the acceleration”. Also, in experiment [3], the SI amounted to 1.7 ± 0.1 moles ZPI/mole FXa, the “ka,app × SI” value was 8.5 ± 0.6 × 10^5 M^−1 s^−1, the “ka,app × SI relative to WT” value is recorded as “(0.71)” and the “ka,app” value is given as 5.0 ± 0.2 × 10^5 M^−1 s^−1.

B2: K260A/R263A/K308A/R310A: ZPI helix H site quadruple mutant (protein, UniProt Q9UK55 22-444, looked up, variant K260A R263A K308A R310A)
Protein Z-dependent protease …: LAPSPQSPETPAPQNQTSRVVQAPKEEEEDEQEASEEKASEEEKAWLMASRQQLAKETSNFGFSLLRKISMRHDGNMVFSPFGMSLAMTGLMLGATGPTETQIKRGLHLQALKPTKPGLLPSLFKGLRETLSRNLELGLTQGSFAFIHKDFDVKETFFNLSKRYFDTECVPMNFRNASQAKRLMNHYINKETRGKIPKLFDEINPETKLILVDYILFKGKWLTPFDPVFTEVDTFHLDKYKTIKVPMMYGAGKFASTFDANFACHVLKLPYQGNATMLVVLMEKMGDHLALEDYLTTDLVETWLRNMATANMEVFFPKFKLDQKYEMHELLRQMGIRRIFSPFADLSELSATGRNLQVSRVLQRTVIEVDERGTEAVAGILSEITAYSMPPVIKVDRPFHFMIYEETSGMLLFLGRVVNPTLL
For B2, in experiment [1], the SI is 4.0 ± 0.8 moles ZPI/mole FXa, the “ka,app × SI” value was 4.5 ± 1.8 × 10^3 M^−1 s^−1, the “ka,app × SI relative to WT” value is reported as “(0.28)” and the “ka,app” value is 1.1 ± 0.2 × 10^3 M^−1 s^−1. Moreover, in experiment [2], the SI is 6.6 ± 0.4 moles ZPI/mole FXa, the “ka,app × SI” value was 2.7 ± 0.4 × 10^7 M^−1 s^−1, the “ka,app × SI relative to WT” value is “(0.61)” and the “ka,app” value was 4.1 ± 0.3 × 10^6 M^−1 s^−1. For the same molecule, in experiment [2], the PZ enhancement is on record as 6000. In experiment [3], the SI was 4.1 ± 0.6 moles ZPI/mole FXa, the “ka,app × SI” value is reported as 7.6 ± 1.3 × 10^4 M^−1 s^−1, the “ka,app × SI relative to WT” value is reported as “(0.06)” and the “ka,app” value is on record as 1.8 ± 0.1 × 10^4 M^−1 s^−1. The H50 rate enhancement in experiment [3] is listed as ~17 fold.

B3: WT: recombinant wild-type protein Z-dependent protease inhibitor (serpin A10) expressed in Escherichia coli (protein, UniProt Q9UK55 22-444, looked up)
Protein Z-dependent protease …: LAPSPQSPETPAPQNQTSRVVQAPKEEEEDEQEASEEKASEEEKAWLMASRQQLAKETSNFGFSLLRKISMRHDGNMVFSPFGMSLAMTGLMLGATGPTETQIKRGLHLQALKPTKPGLLPSLFKGLRETLSRNLELGLTQGSFAFIHKDFDVKETFFNLSKRYFDTECVPMNFRNASQAKRLMNHYINKETRGKIPKLFDEINPETKLILVDYILFKGKWLTPFDPVFTEVDTFHLDKYKTIKVPMMYGAGKFASTFDKNFRCHVLKLPYQGNATMLVVLMEKMGDHLALEDYLTTDLVETWLRNMKTRNMEVFFPKFKLDQKYEMHELLRQMGIRRIFSPFADLSELSATGRNLQVSRVLQRTVIEVDERGTEAVAGILSEITAYSMPPVIKVDRPFHFMIYEETSGMLLFLGRVVNPTLL
For B3, in experiment [1], the SI is 2.8 ± 0.4 moles ZPI/mole FXa, the “ka,app × SI” value is 1.6 ± 0.3 × 10^4 M^−1 s^−1, the “ka,app × SI relative to WT” value is on record as “(1)” and the “ka,app” value is on record as 5.6 ± 0.3 × 10^3 M^−1 s^−1. Further, in experiment [2], the SI was 4.0 ± 0.3 moles ZPI/mole FXa, the “ka,app × SI” value was 4.4 ± 0.3 × 10^7 M^−1 s^−1, the “ka,app × SI relative to WT” value is “(1.0)” and the “ka,app” value is given as 10.9 ± 0.1 × 10^6 M^−1 s^−1. The PZ enhancement in experiment [2] is given as 2750. Moreover, in experiment [3], the SI is given as 2.4 ± 0.1 moles ZPI/mole FXa, the “ka,app × SI” value is on record as 1.2 ± 0.2 × 10^6 M^−1 s^−1, the “ka,app × SI relative to WT” value is listed as “(1)” and the “ka,app” value is listed as 5.1 ± 0.4 × 10^5 M^−1 s^−1. In addition, the H50 rate enhancement in experiment [3] is given as ~75 fold.

B4: K260A/R263A: ZPI helix H site double mutant (protein, UniProt Q9UK55 22-444, looked up, variant K260A R263A)
Protein Z-dependent protease …: LAPSPQSPETPAPQNQTSRVVQAPKEEEEDEQEASEEKASEEEKAWLMASRQQLAKETSNFGFSLLRKISMRHDGNMVFSPFGMSLAMTGLMLGATGPTETQIKRGLHLQALKPTKPGLLPSLFKGLRETLSRNLELGLTQGSFAFIHKDFDVKETFFNLSKRYFDTECVPMNFRNASQAKRLMNHYINKETRGKIPKLFDEINPETKLILVDYILFKGKWLTPFDPVFTEVDTFHLDKYKTIKVPMMYGAGKFASTFDANFACHVLKLPYQGNATMLVVLMEKMGDHLALEDYLTTDLVETWLRNMKTRNMEVFFPKFKLDQKYEMHELLRQMGIRRIFSPFADLSELSATGRNLQVSRVLQRTVIEVDERGTEAVAGILSEITAYSMPPVIKVDRPFHFMIYEETSGMLLFLGRVVNPTLL
For the molecule B4, in experiment [1], the SI amounted to 2.4 ± 0.5 moles ZPI/mole FXa, the “ka,app × SI” value is given as 1.3 ± 0.4 × 10^4 M^−1 s^−1, the “ka,app × SI relative to WT” value is “(0.81)” and the “ka,app” value is 5.4 ± 0.3 × 10^3 M^−1 s^−1. For the same molecule, in experiment [2], the SI was found to be 2.6 ± 0.3 moles ZPI/mole FXa, the “ka,app × SI” value was 1.5 ± 0.2 × 10^7 M^−1 s^−1, the “ka,app × SI relative to WT” value is “(0.34)” and the “ka,app” value was 5.6 ± 0.2 × 10^6 M^−1 s^−1. For the same molecule, the PZ enhancement in experiment [2] came out at 1153. In experiment [3], the SI stood at 2.5 ± 0.4 moles ZPI/mole FXa, the “ka,app × SI” value was 2.9 ± 0.8 × 10^5 M^−1 s^−1, the “ka,app × SI relative to WT” value is listed as “(0.24)” and the “ka,app” value was 1.2 ± 0.1 × 10^5 M^−1 s^−1. In addition, the H50 rate enhancement in experiment [3] is ~22 fold.

(Values after paper PMC9190012, “Heparin activation of protein Z-dependent protease inhibitor (ZPI) allosterically blocks protein Z activation through an extended heparin-binding site” (The Journal of Biological Chemistry, 2022).)
